Assay results as given in patent US11578136B2, “Compositions and methods for treating cancer” (INNATE PHARMA, priority 2017, dated 2023).

Assays:
[1] = target: T1, CD39 expressed by Ramos human lymphoma cells (Homo sapiens, UniProt P49961); assay: Inhibition of the enzymatic activity of cellular CD39 in Ramos cells (Cell Titer Glo); type: cell-based
T1 construct: host or cells: Ramos human lymphoma cells
T1 sequence (P49961 1-510): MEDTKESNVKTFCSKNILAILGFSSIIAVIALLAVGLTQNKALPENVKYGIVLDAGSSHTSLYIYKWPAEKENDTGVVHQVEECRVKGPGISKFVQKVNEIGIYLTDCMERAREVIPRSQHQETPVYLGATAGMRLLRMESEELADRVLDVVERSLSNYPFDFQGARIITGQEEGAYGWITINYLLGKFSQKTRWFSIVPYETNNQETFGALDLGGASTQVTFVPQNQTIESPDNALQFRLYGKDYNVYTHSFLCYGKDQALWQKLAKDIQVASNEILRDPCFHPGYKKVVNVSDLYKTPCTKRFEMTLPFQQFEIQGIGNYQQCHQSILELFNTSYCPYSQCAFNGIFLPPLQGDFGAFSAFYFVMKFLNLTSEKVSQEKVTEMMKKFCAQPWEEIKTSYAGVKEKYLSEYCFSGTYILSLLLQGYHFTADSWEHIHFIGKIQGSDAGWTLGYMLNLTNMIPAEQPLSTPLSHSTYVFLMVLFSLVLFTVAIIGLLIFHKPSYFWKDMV
Protocol: The inhibition of the CD39 enzymatic activity in CD39-expressing cells by antibodies was evaluated using Cell Titer Glo™ (Promega, reference G7571) that allows assessment of ATP hydrolysis through use of a reagent that generates a luminescent signal proportional to the amount of ATP present. The assay was thus designed to permit assessment of the inhibition of ATP hydrolyzed by CD39 in the cell culture supernatant. Briefly, 5×10^4 Ramos human lymphoma cells, 5×10^3 human CD39-, cynomolgus CD39- and mouse CD39-expressing CHO cells, were incubated 1 hour at 37° C. with anti-CD39 antibodies from 30 μg/ml to […]. Cells were then incubated with 20 μM ATP for 1 additional hour at 37° C. Plates were centrifuged for 2 min at 400 g and 50 μl cell supernatant are transferred in a luminescence microplate (white wells). 50 μl CellTiter-Glo® Reagent (CTG) was added to the supernatant and emitted light was quantified after a 5 min incubation in the dark using a Enspire™ luminometer. Anti-CD39 antibody efficacy was determined by comparing emitted light in presence of antibody with ATP alone (maximal light emission) and ATP together with cells (minimal light emission).
The inhibition by antibody I-394 of the ATPase activity of CD39 in CD39-expressing cells was evaluated using the assay used for inhibition of the enzymatic activity of cellular CD39 as described above (Methods).

[2] = target: T2, CHO cells expressing murine CD39 (Mus musculus, UniProt P55772); assay: Antibody titration on CHO-moCD39 by flow cytometry; type: binding; details: result in words
T2 construct: expressed in transfected cells; host or cells: CHO cells
T2 sequence (P55772 1-510): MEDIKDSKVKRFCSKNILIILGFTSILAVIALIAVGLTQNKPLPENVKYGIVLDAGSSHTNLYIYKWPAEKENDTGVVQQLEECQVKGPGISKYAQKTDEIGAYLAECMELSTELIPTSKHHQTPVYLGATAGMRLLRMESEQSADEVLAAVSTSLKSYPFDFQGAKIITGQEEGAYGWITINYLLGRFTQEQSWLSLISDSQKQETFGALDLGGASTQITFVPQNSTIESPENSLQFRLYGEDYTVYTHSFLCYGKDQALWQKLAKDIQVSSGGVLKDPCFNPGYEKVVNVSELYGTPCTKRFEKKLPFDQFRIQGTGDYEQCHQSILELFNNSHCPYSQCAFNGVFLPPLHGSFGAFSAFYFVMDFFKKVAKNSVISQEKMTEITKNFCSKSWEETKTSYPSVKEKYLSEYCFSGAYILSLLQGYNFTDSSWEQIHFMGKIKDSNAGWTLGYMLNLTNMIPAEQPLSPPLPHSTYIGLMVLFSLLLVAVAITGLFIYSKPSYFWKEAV
Protocol: (§1) Antibody I-394 was tested in two repeated experiments for binding to CHO cells expressing human CD39, CHO cells expressing cynomolgus (Macaca fascicularis) CD39, CHO cells expressing murine CD39, and human Ramos lymphoma cells (ATCC™, reference CRL-1596). Cells were incubated with various concentration of unlabeled anti-CD39 antibody from 30 μg/ml to 5×10^−4 μg/ml, for 30 minutes at 4° C. After washes, cells were incubated with Goat anti-mouse H+L labeled secondary antibody for 30 min at 4° C.

[3] = target: T3, Human CD39-L1 (NTPDase2, ENTPD2) (Homo sapiens, UniProt Q9Y5L3); assay: ELISA titration on CD39-L1; type: binding; details: result in words
T3 sequence (Q9Y5L3 1-472 isoform Q9Y5L3-2): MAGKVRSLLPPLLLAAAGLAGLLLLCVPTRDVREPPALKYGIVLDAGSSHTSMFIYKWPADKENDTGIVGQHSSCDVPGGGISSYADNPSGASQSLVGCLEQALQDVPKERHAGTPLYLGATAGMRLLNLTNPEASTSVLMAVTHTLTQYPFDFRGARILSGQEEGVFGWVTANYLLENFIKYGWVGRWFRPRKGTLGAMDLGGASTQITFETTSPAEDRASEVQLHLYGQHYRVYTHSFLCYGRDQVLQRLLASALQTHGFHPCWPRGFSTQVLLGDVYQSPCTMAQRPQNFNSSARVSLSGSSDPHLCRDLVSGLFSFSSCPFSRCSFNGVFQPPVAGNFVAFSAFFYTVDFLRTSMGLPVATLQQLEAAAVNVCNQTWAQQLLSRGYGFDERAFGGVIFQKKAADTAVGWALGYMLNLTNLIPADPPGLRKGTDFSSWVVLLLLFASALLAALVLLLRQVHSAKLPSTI
Protocol: Antibody I-394 was tested for binding to recombinant human CD39 isoforms (Rec-huCD39 isoforms) having amino acid sequences shown below were coated in 96-well plate in PBS 1× at 500 ng/ml or 1 μg/ml at 4° C. overnight. Wells were washed in TBS Tween 20, and further saturated 2H at RT in TBS Blocking buffer. Dose range concentration of primary antibody was incubated in TBS blocking buffer for 2 h at RT. Wells were washed in TBS Tween 20. […] Optical density was measured on Enspire™ at OD=450.

[4] = tested on: CHO cells expressing cynomolgus (Macaca fascicularis) CD39; assay: Antibody titration on CHO-cyCD39 by flow cytometry; type: binding; details: result in words
Protocol: as §1

potency at blocking CD39 in Ramos cells compared to all other antibodies tested [1]: greater potency
maximum inhibition achieved, cellular CD39 ([1]; Ramos cells): 81.6%
blocking CD39 enzymatic activity in tumor (Ramos) cells ([1]; result in words): highly potent
binding to cells expressing murine CD39 (CHO-moCD39) [2]: not
binding to CD39-L1 in ELISA [3]: not
Substance: I-394: anti-CD39 antibody, VH SEQ ID NO: 6, VL SEQ ID NO: 7; human IgG1 Fc with L234A/L235E/G237A/A330S/P331S
binding to cells expressing cynomolgus CD39 (CHO-cyCD39) [4]: bound
